Reference: patent publication US7803921B2, “Sulfotransferase 1E1 sequence variants” (Mayo Foundation for Medical Education and Research, priority 2002, dated 2010)
Read-outs that look alike come from different tables or passages of the source. Marks after values point to notes of the source that are not given here.

Columns and labels:
SULT1E1 [1] = experiment: SULT1E1 allozyme substrate kinetics (apparent Km, Vmax) with E2 and PAPS as cosubstrates; format: biochemical, human; details: for Vmax, PAPS as Varied Substrate / Km / Vmax, E2 as Varied Substrate: mean ± SEM (n = 3); for apparent Km for PAPS, fold higher than the wild type enzyme: PAPS as substrate; for apparent Km for PAPS, fold higher than the wild type enzyme / apparent Km for estradiol, fold higher than the wild type enzyme: versus wild type; for apparent Km for estradiol, fold higher than the wild type enzyme: estradiol as substrate
Excerpt: Other biochemical properties of allozymes, such as apparent Km values, also can be altered relative to the reference SULT1E1. Apparent Km values can be calculated, for example, by using the method of Wilkinson with a computer program written by Cleland. Wilkinson (1961) Biochem. J. 80:324-332 and Cleland (1963) Nature 198:463-365. As described herein, the apparent Km values for PAPS varied more than 3-fold among the allozymes tested (Asp22Tyr, Ala32Val, and Pro253His).
Apparent Km values for each allozyme were determined with both cosubstrates. Initial experiments used 10-fold serial dilutions of E2 that ranged from 10^−3 to 10^−9 M. Apparent Km values were calculated by using the method of Wilkinson with a computer program written by Cleland (see, Wilkinson (1961) Biochem J 80:324-332; and Cleland (1963) Nature 198:463-365). Maximal activity for all allozymes was found at E2 concentrations near 100 nM. A second set of experiments was performed in the presence of 0.4 μM PAPS using eight concentrations of E2 that varied from 3.1 nM to 400 nM.

SULT1E1 [2] = experiment: Enzyme thermal stability (T50) of recombinant SULT1E1 allozymes; format: physicochemical, human; details: for T50 value as compared to the wild-type enzyme: in words; for Thermal Stability T50: temperature resulting in 50% thermal inactivation, 15 minutes at 28° C. to 46° C., mean ± SEM (n = 3)
Experimental: Enzyme thermal stability was measured by diluting COS-1 cell supernatant preparations for each of the recombinant SULT1E1 allozymes and incubating them in a water bath for 15 minutes at temperatures ranging from 28° C. to 46° C. The samples were placed on ice immediately after incubation. Aliquots of the same supernatant preparations also were kept on ice as controls. Enzyme activity was measured in both heated and unheated samples, and blank values were determined for each temperature studied.

[3] = 50 nM E2, PAPS 2.7 nM to 150 nM
[4] = 50 nM E2, PAPS 2.7 nM to 150 nM, read-out: Apparent Km, PAPS as Varied Substrate
[5] = 0.4 μM PAPS, E2 3.1 nM to 400 nM
[6] = 0.4 μM PAPS, E2 3.1 nM to 400 nM, read-out: Apparent Km, E2 as Varied Substrate

Molecule	Vmax, PAPS as Varied Substrate (SULT1E1 [1]; [3])	Km (SULT1E1 [1]; [4]) [µM]	Vmax, E2 as Varied Substrate (SULT1E1 [1]; [5])	Km (SULT1E1 [1]; [6]) [µM]	apparent Km for PAPS, fold higher than the wild type enzyme (SULT1E1 [1])	apparent Km for estradiol, fold higher than the wild type enzyme (SULT1E1 [1])	T50 value as compared to the wild-type enzyme (SULT1E1 [2])	Thermal Stability T50 (SULT1E1 [2])
Ala32Val: SULT1E1 allozyme with valine in place of alanine at residue 32 (thymine at nucleotide 95) (protein, UniProt P49888 1-294, looked up, variant A32V) Sulfotransferase 1E1: MNSELDYYEKFEEVHGILMYKDFVKYWDNVEVFQARPDDLVIATYPKSGTTWVSEIVYMIYKEGDVEKCKEDVIFNRIPFLECRKENLMNGVKQLDEMNSPRIVKTHLPPELLPASFWEKDCKIIYLCRNAKDVAVSFYYFFLMVAGHPNPGSFPEFVEKFMQGQVPYGSWYKHVKSWWEKGKSPRVLFLFYEDLKEDIRKEVIKLIHFLERKPSEELVDRIIHHTSFQEMKNNPSTNYTTLPDEIMNQKLSPFMRKGITGDWKNHFTVALNEKFDKHYEQQMKESTLKFRTEI	5.7 ± 0.1^a nmol/hr/β-galactosidase units	0.065 ± 0.0042	22.8 ± 6.6 nmol/hr/β-galactosidase units	0.044 ± 0.005	comparable to those of the wild type SULT1E1 enzyme	comparable to those of the wild type SULT1E1 enzyme	reduced T50 values	36.7 ± 1.2 °C
Wild type: reference human SULT1E1 enzyme (SEQ ID NO:7, GenBank U08098), recombinantly expressed in COS-1 cells (protein, listed as Homo sapiens) MNSELDYYEKFEEVHGILMYKDFVKYWDNVEAFQARPDDLVIATYPKSGTTWVSEIVYMIYKEGDVEKCKEDVIFNRIPFLECRKENLMNGVKQLDEMNSPRIVKTHLPPELLPASFWEKDCKIIYLCRNAKDVAVSFYYFFLMVAGHPNPGSFPEFVEKFMQGQVPYGSWYKHVKSWWEKGKSPRVLFLFYEDLKEDIRKEVIKLIHFLERKPSEELVDRIIHHTSFQEMKNNPSTNYTTLPDEIMNQKLSPFMRKGITGDWKNHFTVALNEKFDKHYEQQMKESTLKFRTEI	27.2 ± 0.7^a nmol/hr/β-galactosidase units	0.056 ± 0.0029	26.8 ± 4.4 nmol/hr/β-galactosidase units	0.03 ± 0.005				38.5 ± 0.92 °C
Pro253His: SULT1E1 allozyme with histidine in place of proline at residue 253 (adenine at nucleotide 758) (protein, UniProt P49888 1-294, looked up, variant P253H) Sulfotransferase 1E1: MNSELDYYEKFEEVHGILMYKDFVKYWDNVEAFQARPDDLVIATYPKSGTTWVSEIVYMIYKEGDVEKCKEDVIFNRIPFLECRKENLMNGVKQLDEMNSPRIVKTHLPPELLPASFWEKDCKIIYLCRNAKDVAVSFYYFFLMVAGHPNPGSFPEFVEKFMQGQVPYGSWYKHVKSWWEKGKSPRVLFLFYEDLKEDIRKEVIKLIHFLERKPSEELVDRIIHHTSFQEMKNNPSTNYTTLPDEIMNQKLSHFMRKGITGDWKNHFTVALNEKFDKHYEQQMKESTLKFRTEI	34.8 ± 0.2^a nmol/hr/β-galactosidase units	0.18 ± 0.0075	58.6 ± 2.5^b nmol/hr/β-galactosidase units	0.097 ± 0.007	~2.8 fold	approximately 2.5 fold		38.4 ± 0.46 °C
Asp22Tyr: SULT1E1 allozyme with tyrosine in place of aspartic acid at residue 22 (thymine at nucleotide 64) (protein, UniProt P49888 1-294, looked up, variant D22Y) Sulfotransferase 1E1: MNSELDYYEKFEEVHGILMYKYFVKYWDNVEAFQARPDDLVIATYPKSGTTWVSEIVYMIYKEGDVEKCKEDVIFNRIPFLECRKENLMNGVKQLDEMNSPRIVKTHLPPELLPASFWEKDCKIIYLCRNAKDVAVSFYYFFLMVAGHPNPGSFPEFVEKFMQGQVPYGSWYKHVKSWWEKGKSPRVLFLFYEDLKEDIRKEVIKLIHFLERKPSEELVDRIIHHTSFQEMKNNPSTNYTTLPDEIMNQKLSPFMRKGITGDWKNHFTVALNEKFDKHYEQQMKESTLKFRTEI	1.9 ± 0.1^a nmol/hr/β-galactosidase units	0.24 ± 0.0092	4.7 ± 0.3^b nmol/hr/β-galactosidase units	0.22 ± 0.03	3.3 fold	6 fold	reduced T50 values	35.0 ± 0.32^c ° C.
